Data taken from publication PMC4357238, “Catalytic surface radical in dye-decolorizing peroxidase: a computational, spectroscopic and site-directed mutagenesis study” (Biochemical Journal, 2015).

How the values were obtained:
Format in all cases: biochemical, Auricularia auricula-judae
[1] = substrate: COc1cccc(OC)c1O; assay: steady-state kinetics, absorbance increase, Michaelis-Menten fit; conditions: 0.1 mM H2O2, 10 nM enzyme, 0.1 M tartrate pH 3, 25°C
Excerpt: (§1) steady-state kinetics, absorbance increase, Michaelis-Menten fit on DyP (dye-decolorizing peroxidase; mature DyP-I) of Auricularia auricula-judae

[2] = substrate: CCn1c(=NN=c2sc3cc(S(=O)(=O)O)ccc3n2CC)sc2cc(S(=O)(=O)O)ccc21; assay: as above; conditions: 0.1 mM H2O2, 10 nM enzyme, 0.1 M tartrate pH 3, 25°C
Excerpt: as §1

[3] = substrate: Nc1c(S(=O)(=O)O)cc(Nc2cccc(S(=O)(=O)CCOS(=O)(=O)O)c2)c2c1C(=O)c1ccccc1C2=O; assay: steady-state kinetics, absorbance decrease, Michaelis-Menten fit; conditions: 0.1 mM H2O2, 10 nM enzyme, 0.1 M tartrate pH 3.5, 25°C
Excerpt: (§2) steady-state kinetics, absorbance decrease, Michaelis-Menten fit on DyP (dye-decolorizing peroxidase; mature DyP-I) of Auricularia auricula-judae

[4] = substrate: Nc1c(N=Nc2ccc(S(=O)(=O)CCOS(=O)(=O)O)cc2)c(S(=O)(=O)O)cc2cc(S(=O)(=O)O)c(N=Nc3ccc(S(=O)(=O)CCOS(=O)(=O)O)cc3)c(O)c12; assay: as above; conditions: single set of constants, 0.1 mM H2O2, 10 nM enzyme, 0.1 M tartrate pH 3, 25°C, pH 3.0
Excerpt: as §2

[5] = substrate: COc1ccc(CO)cc1OC; assay: steady-state kinetics, absorbance increase, Michaelis-Menten fit; conditions: single set of constants, 0.1 mM H2O2, 100 nM enzyme, 0.1 M tartrate pH 2.5, 25°C, pH 2.5
Excerpt: as §1

[6] = two-site kinetics: high-affinity low-turnover site
[7] = single set (high-turnover site)
[8] = single set (high-turnover site, haem channel blocked), pH 3.5
[9] = two-site kinetics: high-affinity low-turnover site, pH 3.5
[10] = single set (low-turnover site), pH 3.0
[11] = two-site kinetics: high-affinity low-turnover site, pH 3.0
[12] = single set (low-turnover site), pH 3.5

B1: DyP (dye-decolorizing peroxidase; mature DyP-I) of Auricularia auricula-judae (Auricularia auricula-judae; G230L) (protein)
chain: ATSLNTDDIQGDILVGMHKQKQLFYFFAINDPATFKTHLASDIAPVVASVTQLSNVATQPLVALNIAFSNTGLLALGVTDNLGDSLFANGQAKDATSFKESTSSWVPQFAGTGIHGVIILASDTTDLIDQQVASIESTFGSSISKLYSLSASIRPGNEAGHEMFGFLDLIAQPAINGFNTPLPGQNIVDAGVIITGATNDPITRPSWAVGGSFLAFRQLEQLVPEFNKYLLDNAPAGSGSLQARADLLGARMVGRWKSGAPIDLTPTADDPALGADAQRNNNFTYSHAGFDLGSDQSHCPFSAHIRKTRPRADLGGSLTPPNLSAGANSIMRSGIPYGPEVTSAESASNTTTQERGLAFVAYQAQLSQGFHFLQQTWADNANFPPGKTPATVGLDPIIGQNNGQPRVVNGLLPSNSSASLSIPQFVVSHGGEYFFSPPISAIGGRLSA
notes: variants made on the same plasmid
Km [1, 6]: 6.0 ± 0.4 µM
kcat [1, 6]: 9.9 ± 0.2 s⁻¹
kcat/Km [1, 6]: 1.6e+06 ± 70000 M⁻¹ s⁻¹
Km [2, 7]: 25 ± 2 µM
kcat [2, 7]: 96 ± 2 s⁻¹
kcat/Km [2, 7]: 3.77e+06 ± 270000 M⁻¹ s⁻¹
Km [3, 8]: 10 ± 3 µM
kcat [3, 8]: 106 ± 9 s⁻¹
kcat/Km [3, 8]: 1.24e+07 ± 3e+06 M⁻¹ s⁻¹
Km [4]: 5.8 ± 0.6 µM
kcat [4]: 1.2 ± 0.1 s⁻¹
kcat/Km [4]: 217000 ± 13000 M⁻¹ s⁻¹

B2: DyP (dye-decolorizing peroxidase; mature DyP-I) of Auricularia auricula-judae (Auricularia auricula-judae) (protein)
chain: ATSLNTDDIQGDILVGMHKQKQLFYFFAINDPATFKTHLASDIAPVVASVTQLSNVATQPLVALNIAFSNTGLLALGVTDNLGDSLFANGQAKDATSFKESTSSWVPQFAGTGIHGVIILASDTTDLIDQQVASIESTFGSSISKLYSLSASIRPGNEAGHEMFGFLDGIAQPAINGFNTPLPGQNIVDAGVIITGATNDPITRPSWAVGGSFLAFRQLEQLVPEFNKYLLDNAPAGSGSLQARADLLGARMVGRWKSGAPIDLTPTADDPALGADAQRNNNFTYSHAGFDLGSDQSHCPFSAHIRKTRPRADLGGSLTPPNLSAGANSIMRSGIPYGPEVTSAESASNTTTQERGLAFVAYQAQLSQGFHFLQQTWADNANFPPGKTPATVGLDPIIGQNNGQPRVVNGLLPSNSSASLSIPQFVVSHGGEYFFSPPISAIGGRLSA
notes: as for B1
Km [1, 6]: 6.0 ± 0.5 µM
kcat [1, 6]: 8.0 ± 0.2 s⁻¹
kcat/Km [1, 6]: 1.35e+06 ± 100000 M⁻¹ s⁻¹
Km [2, 6]: 3.1 ± 1.1 µM
kcat [2, 6]: 7.4 ± 1.4 s⁻¹
kcat/Km [2, 6]: 2.37e+06 ± 420000 M⁻¹ s⁻¹
Km [3, 9]: 14.0 ± 2.0 µM
kcat [3, 9]: 32.0 ± 3.0 s⁻¹
kcat/Km [3, 9]: 2.23e+06 ± 200000 M⁻¹ s⁻¹
Km [4]: 15.6 ± 2.0 µM
kcat [4]: 4.8 ± 0.2 s⁻¹
kcat/Km [4]: 310000 ± 20000 M⁻¹ s⁻¹

B3: DyP (dye-decolorizing peroxidase; mature DyP-I) of Auricularia auricula-judae (Auricularia auricula-judae; Y398S) (protein)
chain: ATSLNTDDIQGDILVGMHKQKQLFYFFAINDPATFKTHLASDIAPVVASVTQLSNVATQPLVALNIAFSNTGLLALGVTDNLGDSLFANGQAKDATSFKESTSSWVPQFAGTGIHGVIILASDTTDLIDQQVASIESTFGSSISKLYSLSASIRPGNEAGHEMFGFLDGIAQPAINGFNTPLPGQNIVDAGVIITGATNDPITRPSWAVGGSFLAFRQLEQLVPEFNKYLLDNAPAGSGSLQARADLLGARMVGRWKSGAPIDLTPTADDPALGADAQRNNNFTYSHAGFDLGSDQSHCPFSAHIRKTRPRADLGGSLTPPNLSAGANSIMRSGIPSGPEVTSAESASNTTTQERGLAFVAYQAQLSQGFHFLQQTWADNANFPPGKTPATVGLDPIIGQNNGQPRVVNGLLPSNSSASLSIPQFVVSHGGEYFFSPPISAIGGRLSA
notes: as for B1
Km [3, 6]: 7.4 ± 2.3 µM
kcat [3, 6]: 26.0 ± 1.9 s⁻¹
kcat/Km [3, 6]: 3.37e+06 ± 350000 M⁻¹ s⁻¹

B4: DyP (dye-decolorizing peroxidase; mature DyP-I) of Auricularia auricula-judae (Auricularia auricula-judae; W438S) (protein)
chain: ATSLNTDDIQGDILVGMHKQKQLFYFFAINDPATFKTHLASDIAPVVASVTQLSNVATQPLVALNIAFSNTGLLALGVTDNLGDSLFANGQAKDATSFKESTSSWVPQFAGTGIHGVIILASDTTDLIDQQVASIESTFGSSISKLYSLSASIRPGNEAGHEMFGFLDGIAQPAINGFNTPLPGQNIVDAGVIITGATNDPITRPSWAVGGSFLAFRQLEQLVPEFNKYLLDNAPAGSGSLQARADLLGARMVGRWKSGAPIDLTPTADDPALGADAQRNNNFTYSHAGFDLGSDQSHCPFSAHIRKTRPRADLGGSLTPPNLSAGANSIMRSGIPYGPEVTSAESASNTTTQERGLAFVAYQAQLSQGFHFLQQTSADNANFPPGKTPATVGLDPIIGQNNGQPRVVNGLLPSNSSASLSIPQFVVSHGGEYFFSPPISAIGGRLSA
notes: as for B1
Km [1, 10]: 3560 ± 250 µM
kcat [1, 10]: 6.4 ± 0.1 s⁻¹
kcat/Km [1, 10]: 1800 ± 100 M⁻¹ s⁻¹
Km [5]: 7360 ± 1270 µM
kcat [5]: 0.23 ± 0.01 s⁻¹
kcat/Km [5]: 32 ± 3 M⁻¹ s⁻¹
Km [2, 11]: 30.0 ± 0.5 µM
kcat [2, 11]: 14.0 ± 1.0 s⁻¹
kcat/Km [2, 11]: 472000 ± 61000 M⁻¹ s⁻¹
Km [3, 12]: 3.9 ± 0.6 µM
kcat [3, 12]: 8.9 ± 0.6 s⁻¹
kcat/Km [3, 12]: 2.24e+06 ± 240000 M⁻¹ s⁻¹
Km [4]: 10.6 ± 1.0 µM
kcat [4]: 0.70 ± 0.02 s⁻¹
kcat/Km [4]: 68000 ± 4000 M⁻¹ s⁻¹
